The source of these data is publication PMC3646756.

Test [1] addresses recombinant mouse FcRn (mouse) (UniProt Q61559).
Test [2] has as its target recombinant human FcRn (human) (UniProt P55899).
Test [3] has as its target hIgG1 Fc variant v6 (M252Y/V308P/N434Y) (human). Nature of the test: SPR; KD at pH 6.0 (Table 1); set-up told only for pH 7.0: antibody variant captured on Protein L on a CM4 chip, FcRn injected.
In test [4] the target is hIgG1 Fc variant v3 (M252Y/N434Y) (human). Described as above.
Test [5] addresses hIgG1 Fc variant v4 (M252Y/N286E/N434Y) (human). The test is described as above.
Test [6] addresses hIgG1 Fc variant v5 (M252Y/T307Q/Q311A/N434Y) (human). The description is as above.
The target of test [7] is hIgG1 (anti-hsIL-6R antibody with wild-type human IgG1 constant region) (human). The description is as above.
Test [8] deals with hIgG1 Fc variant v2 (M252W/N434W) (human). The test is described as above.
The target in test [9] is hIgG1 Fc variant v6 (M252Y/V308P/N434Y) (human). Nature of the test: SPR; Biacore T200; antibody variant captured on Protein L immobilised on a CM4 chip, FcRn injected over the flow cell; pH 7.0.
Test [10] concerns the target hIgG1 Fc variant v3 (M252Y/N434Y) (human). The description is as above.
In test [11] the target is hIgG1 Fc variant v5 (M252Y/T307Q/Q311A/N434Y) (human). Described as above.
Test [12] concerns the target hIgG1 (anti-hsIL-6R antibody with wild-type human IgG1 constant region) (human). The test is described as above.
Test [13] addresses hIgG1 Fc variant v2 (M252W/N434W) (human). The description is as above.
Test [14] concerns the target hIgG1 Fc variant v1 (I332V/N434Y) (human). Put plainly: SPR; KD at pH 6.0 (Table 1); set-up told only for pH 7.0: antibody variant captured on Protein L on a CM4 chip, FcRn injected.
Test [15] has the same target. Nature of the test: SPR; Biacore T200; antibody variant captured on Protein L immobilised on a CM4 chip, FcRn injected over the flow cell; pH 7.0.

As to “hIgG1 Fc variant v1 (I332V/N434Y) (antibody)”, the total hsIL-6R plasma concentration after PH-v1, 1 mg/kg i.v., normal mice steady-state model (reduction below the baseline) in test [1] worked out at 150 fold.

Turning to “hIgG1 Fc variant v4 (M252Y/N286E/N434Y) (antibody)”, the fold decrease in total hsIL-6R plasma concentration after PH-v4 against NPH-IgG1, 1 mg/kg i.v. with 1 g/kg hIgG, hFcRn-Tgm steady-state model in [2] was found to be 50 fold.

With “recombinant human FcRn (from UniProt P55899 24-365) (receptor)”, the Kd came to 3 nM in test [3]; 15 nM in test [4]; 8 nM in test [5]; 5 nM in [6]; 1380 nM in test [7]; 6 nM in test [8]. The Kd in test [9] turned out to be 35 nM; in test [10], 288 nM; in [11] it was 77 nM; in test [12] it was 88000 nM; in [13], 155 nM.

Regarding “recombinant mouse FcRn (from UniProt Q61559 22-365) (receptor)”, the dissociation constant (Kd) in test [7] is 237 nM; in test [14], 3 nM; in test [12] it was 3920 nM; in test [15], 52 nM.
